# Results taken from the domain aggregation screens of Martell et al. (2025).
# Test: soluble fraction after stress (log2 fold change); higher = more stays soluble; pooled small domains, quantitative proteomics
# Details: stress: pH 4
# Outline: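 Aggregation propensity is read out as the fold change in how much of each domain remains soluble after acid stress. The custom small-domain libraries were pooled, held at pH 4 and analysed with high-throughput quantitative proteomics. On the log2 scale used, higher values mean more of the domain stayed soluble.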
row,Sequence,soluble fraction (log2)
1,HMSDSAFAEMRRELEALRNSNAEYERALSNFFPEAEDKALAAEAFYQNREYDELVAEREEANVIDGLKR,-0.815
2,HMSDSISLTLNGDLRRFRAHATIADLVRDIGLDPVKVAVERNLEIVSRSTLEDVVLADGDRLEIVHFV,-2.67
3,HMSDSLVLTGVAYVDGKPVVTLFDKVKKESLVVTDQPNLKGWTLVEATQSSDIKRATAKVNIGGEPVSIRY,-0.162
4,HMSDTFENILQRLIKATGRKNASEMANALGLSPQSVYSAKTKGKIPPAWIFAAAERFNASADWIYFGY,-0.759
5,HMSDTSAIEKIIDEVLSDESSQKAINDIKNGNEKVYGFLVGQVMKKSQGKANPGLVQKMLREKIAK,0.22
6,HMSDYKSALQEAVQTNKQSIEYVLIKESGPAHNKTFTFEVRIDNISYGVGTAKSKKEAEQIAAKDALDKLV,-0.103
7,HMSDYVLLYSGLNTSDTTFLAYSFQEKGIRYKMPNPDEIEVRVQDVDQARRIAAGAQLGGQVS,-0.297
8,HMSEEGTIPDVSGQDEASAQKALENAGFTNIKSEAVYSEEEQGTVIDTNPTAGTKVSKDTEITMQVSKGSE,0.108
9,HMSEEKLVFSIPDDIETMRIDKAIALETHLSRAQIAELFKENKILLNSKNSKRSEKVKPGDKISLEFIPKI,-0.0612
10,HMSEEVKSQPISILDLSTRASNGLKNEGIETIGELVKYSEDELLGLDKFGQNSLKEIKKKLEEIGLTLKEH,-0.0527
11,HMSEFLTIVRAVYSGLSRRKVAAMHKVSRNTVSLYLRQARDQGWLTLEDLEKLDDLTVSQGVS,-0.918
12,HMSEFVIPLAKYNKALYTQVSLGMRFRMLFETEDSGVRRYMGTITGIGDLDPIRWKNSHWRNLQV,0.22
13,HMSEHLTLVVSDEDAGHRVDQFLVSRLAHMTRSQIQKLIKDGQVTIDTKLVRASTTVHTDNIVTIEFPPAV,0.314
14,HMSEKLTLEAANEAAGMRIDKWLAMQLPELSRSRIEALISGGGVVVNGKNPSKSLKLKGGEQIELEIPE,0.108
15,HMSELLIVGSEQDNTRLDRFLADQYEEYTRSFLQKLIDQGNVSINGISVKKSGIKLKENDEIAVTLPEPQ,-0.588
16,HMSELPLTQKVAIVMVALGEEASGEVMKHLSDYEIEEITQAIAGLKNISVELMDQILEEYEQHLIAG,-0.536
17,HMSELTKEIGKRIHDFRKSRGLNQEELARLIYKSKATLSKYEKGEIAIDLDTLKQLALALHVRMEQLLPPT,≥ 0.43
18,HMSENDTILAKFVSVMGNKNLELVIFPDIAYLKGQVSNPEDKTKAETVAQSLLGGKPLVSLIEFE,-0.917
19,HMSENIQLQKEQLYQLIAQLPEQRQKIFRLHKIDNYSYQEISDFTGLSRKTIANHIYLAHQFILKKVKK,-0.28
20,HMSENKIMEIVQDLAREKSVILISHRLANVTAADKILYMEQGKIAESGTHEQLMAQNKAYAALFNKQQEL,-0.0418
21,HMSENLESEFFGIVVITQTLLQKELRDKPMTVELIRKTVEDVMSKHYSDSSVDKAKVEEELIRRFSTW,-1.75
22,HMSENMSQDLAQWYRLQQALHPNLDAPELWATDLTSQQRTVRDQLIQQWAQEKRDSLWSEISGD,-0.618
23,HMSEPFDMAVPLTSGGRRLDQVLAELLPQHSRNRLQGWIRDGLLTLDGVTVTEPKRKLAGGEQLALLLP,-0.238
24,HMSEPTLESLRAEGAHHYDPARFHYLEVLARRMPGQHAAVQQVLASRLREAVAAYAGRRSLI,-0.252
25,HMSEQSEALRTGLDQLPINQRTALTLFHLHELNQSEVAKIMNISVGAVESLLFRGRQKMKQLLTSD,-0.157

row,Sequence,soluble fraction (log2)
1,HMSERIITFGEATREAMLEEMRADERVFVYGEDIAKQGGIFGQFAGMKDEFPERVLDTPISETALVGAG,-0.679
2,HMSERVVVPDLTGKDLVAAQSELREISLAGREEGPGDKVRRQFPVAGVKVPKDTVVILYTED,0.117
3,HMSESAGKALDILFYLARVEDEVSLARLSKETGMNKATALRYLAVLESWGVVEKRPSGWSLGLSLFELGSK,-1.03
4,HMSESGTFRAEAADAGRRLDVALAERLRLSRAAAQRLIAAGLVLVEGSPARKRQILHAGETVAWRAAPP,-0.0686
5,HMSESLLTAAGFKTIAATTPEQKRHLEWLHPDQVTAVQLTGQHYYVYPDVAKSQLFVGTPKEYQAYLALRT,0.00516
6,HMSESLRDLVLSLIPEDGSTIGNRALITRLREDLPDLTDEDYHEVRDQLIAEGVLAKGRGQGGSVARANG,0.0415
7,HMSETIVFGQQKAINTLSSEAGLSSAELNNYLKKRYQRPLFQLTVSEGADLIQGFQDGTLTKASITQYVSQ,0.22
8,HMSETQDQTTIEIEDMITVGTLAERLSIPVSTLIGELMKNGVMATVNEKIDFDTAQIIVGELKLPIELSKK,-0.269
9,HMSEYEYALHEFGITKKQSQRIFDRLSIADLEERINAIQTTLKQRSDIDNPAAYAWTVLNAE,-0.767
10,HMSEYLDIHMAMEKLNRKEQLFVHLRFYEGLTQSEIAQRLFTSQVQISRLEKSVLEKMRQILSK,-0.91
11,HMSEYTRGELVSSLEAGEVAAVSIRPNRETPTGEAQIVLSDGQHRVLYVTDVREIEELVSSYGLNPQVEK,-0.233
12,HMSFDNIKVGYISETAGYVKGISLADANEYAKLNPDTEFIFIDGDEKVRFLTINEVNGLTPKNLLRSDP,-1.6
13,HMSFGFFELKSSDTDKLFAYLNNNEHFGNIKEENGLVTAFLTSELDAQTLNKLLFDNGIIASHLVKRK,-1.82
14,HMSFMPDPSIHDAITYTVRSGDYLGKISTTFGVKVSDLQKWNSIKSNIIYPGQKLTVWVSSNKRESLQ,0.194
15,HMSFPLKRGSKGNRVTQLQNALVKKFGASILPKYGVDGMFGKEVEAALVRAKLPTSINESTYNSFV,-0.0036
16,HMSFVAYEEEKAIGMVRLIGDGGMSFYIKDFAVLPGHQGKGVGQMLLMELQQYLLEHKPADWAVSLE,-1.47
17,HMSGAKLLAPVTGTLLRYTVAEGTKVSEGQTVIMLESMKMELEINAHKAGVIHFTAAAGAQVAEGDSLAEI,-0.419
18,HMSGDKKLQMNLILEFAQQNESFRTKDIEELLQIRSSRARKLISDLVTEGRLEALGENRNRRYQLI,-0.329
19,HMSGDYRALYSSLPPERASSVVDALNVAGIPYRIQDSTGAIMVPAEQIYDARIRLAGQGLGK,0.0695
20,HMSGEPKNERQIEVPDVTKKSIREANNILTSEGLRLRIEGTGLAVSQKPAAGTMVEPDTIITVTFQAP,-0.0704
21,HMSGHEVMVQRITAIIAELYQYGFVSRKKMMDEFNISERTLYRDLNRLGDRIVPDGDGIYRLAPAYA,-0.954
22,HMSGHIPGIKIKGVIFFDKGSSSNHIIATTENNSNLKLRVGETVQGAVLKSIHPNHVIFFHHNQLIEVGIG,0.0374
23,HMSGKGEFDQLLRSGEYVQAFQRANANGNVTLRRQQLLNLARHQAASGVGSGAIESLSTIQRI,0.104
24,HMSGKMTVPNVVGKTETEAKSALSAKGFTNVRTETVDSTEAAGTVVKQSLDADSVQDPKTEIVLSVSNG,≥ 0.43
25,HMSGKWKIRILWYIAEYEVQRFGELRRRLGDITQSTLTEQLRELEQDGFVSRYVYQEVPSKVEYSLTE,-0.0562

row,Sequence,soluble fraction (log2)
1,HMSGKWSILILHALEQGPKRFNVLHRELSGITQATLTKQLRQLEEDGIILRKAYPQIPPKVEYQLTEIG,0.112
2,HMSGNPLDTYYSKWSAEIKKGSPNAVISKEGDKYYVSIPGENRMAIIYENPHLIRMVNATRNIHVE,0.0911
3,HMSGPSDRDLFDEALALLSGSGREPDYHEARIRLGTLVEQFPESKWAEGAKALLSMLDRVSALQV,-0.673
4,HMSGPVITEERNIANALISGLANMKETPTREQVERKAQQIAELFGYTGDLRNIITEAMISVDT,-0.137
5,HMSGRPPTYTAEERSAVIAAALSRPADLGLPFASWTLDRLVAYLGEKGIGMKRSRMSEVLLAEGLKW,-0.0116
6,HMSGSGYAYVDKYGYSHVVKDYDTAKNYASDGNVYNYSGSHKGGYAYDADNYRVPLDLPGSKPYG,-0.183
7,HMSGSIIQQAENLERQFGDTREAILGTLSDPKMSEEILETLMERYNKQHGTNWDKNTWAEEWAKANK,-0.355
8,HMSGSILVQVSATDLNIRKGPGTNYGTTGKYTGKGTFTIVETRSGQGSNAGWGKLKSGAGWISLDYAKR,-0.0233
9,HMSGTESMIEGRGEARTAIDGEGKVFFQGEYWTAQSDQFIPQGAKVRIKKVEGLNLIVEEIK,-0.796
10,HMSGTYIVTVQANTLDIYKSMTSNDTIGKANKGDVFQILEDMGGGYAKVSYNDVEGYISIKDGDTSIDEM,-1.29
11,HMSGVIVPDIYNKTLAEAVASLEGEGFSTEKKEGYSDTVPKGNVMSQKPEAGTSAERGSTVTITISQGPQ,-0.0347
12,HMSGWIATGTATSTGNDVRVRSTPDATVNNNILLTLNKGNRFEIDGQTQNGFYHIKVNDTIGWISGLYVKE,0.0378
13,HMSGYFSDKKLNELFEQYLIMREKKGKPVVGYQLKILIDRLNQVAANTKEKIEVVSNAIAGDWNTFYPIKR,0.0685
14,HMSHDTLVYRLAQMLVKLNQGEKLDPQQLAEEFGVNLRTIQRDLNVRFAYLQLEKTDGRYHLDPTFL,-0.241
15,HMSHLTKKQEEVLLFIRDYYEEEGRSPSYSDIQHHFGLKSKSSVQDYIGYLKKAGFLQKSVGSRAIELV,≥ 0.43
16,HMSHQIIIVAVELDPSTERIVYYLSKNGISINVLFFKVFQHGDEQFLSRVWLIDPSETQTNAALA,-0.424
17,HMSIESMVGRFGVVTKDVVANEMAGKVKVGREEFRATADIAVSSGTKVKVTHAEGITLTVVPE,0.0258
18,HMSIGKEATPDDIVPNIRVYHATFGYGNVIKTDGVSHDKKAVVNFDSVGEKTLLLKFAKLILPY,-0.754
19,HMSIGLEGFVGKLGISTSDLRPSGWGEFDAKKLFVVTEGEFVDRKEKIEILSVDGNRILVRKIS,-0.471
20,HMSILPGVYRHYKGNHYQVFYLAKHSETLEDMVVYQALYGERGIWVRPASMWNETVDDQGKQVKRFTYI,-1.22
21,HMSILYNAVKGTLVSSGALTADSWYKISSFGTASALPALKVGSIFKTPEGAGDAITLASGDSVYPLTLT,0.021
22,HMSINQTIEGKKQGYWIIYGNMRNLQEYLSNEVIEEGQFKNSRKEGVWRKYFPGGQMKSEITYINGRP,-0.93
23,HMSINTIIAKNLNRLRNERNLSLGQLAELSGVSKVMLSQIEKGDSNPTVNTIWKIASGLNVPYTAILDQP,0.22
24,HMSIPVLKDGTYESWGNEKVYKVGDRVMVGSNGYVAKWWNQDETPEKAIINPNDSPWRPMTESEIMEVLK,-0.113
25,HMSISEADAKKIALEKVPGATDSNLRIKTDYDDGIMKYEVKIVYNEMKYEFDIDAATGTILEWESESVY,0.277
